Measured values published in the Immune Epitope Database (IEDB).

How the values were obtained:
HLA-C*12:03 = experiment: IEDB peptide-MHC binding, purified MHC/direct/fluorescence; filed as Kd, often an IC50 or EC50 that approximates it; ≥ and ≤ were set here for values at or beyond the usual limits of such assays
HLA-A*01:01 = experiment: IEDB peptide-MHC binding, purified MHC/competitive/fluorescence; filed as Kd, often an IC50 or EC50 that approximates it; ≥ and ≤ were set here for values at or beyond the usual limits of such assays; settings: source organism: Yersinia pestis Antiqua
HLA-A*26:01 = experiment: as above
HLA-B*35:01 = experiment: as above; settings: source organism: Yersinia pestis Antiqua
HLA-A*23:01 = experiment: as above; settings: source organism: Rickettsia sibirica 246
HLA-A*03:01 [1] = experiment: as above
HLA-A*31:01 = experiment: as above; settings: source organism: Bacillus cereus G9241
HLA-A*02:19 [2] = experiment: IEDB peptide-MHC binding, purified MHC/direct/fluorescence; filed as Kd, often an IC50 or EC50 that approximates it; ≥ and ≤ were set here for values at or beyond the usual limits of such assays; settings: source organism: Orthohantavirus andesense
HLA-A*02:12 [3] = experiment: as above; settings: source organism: Orthohantavirus andesense
HLA-A*02:03 [4] = experiment: as above; settings: source organism: Orthohantavirus andesense
HLA-A*68:02 [5] = experiment: as above; settings: source organism: Orthohantavirus andesense
HLA-A*03:01 [6] = experiment: as above; settings: source organism: Orthohantavirus andesense
HLA-A*02:16 = experiment: as above; settings: source organism: Orthohantavirus andesense
HLA-A*02:11 = experiment: as above; settings: source organism: Orthohantavirus andesense
HLA-B*51:01 = experiment: IEDB peptide-MHC binding, purified MHC/competitive/fluorescence; filed as Kd, often an IC50 or EC50 that approximates it; ≥ and ≤ were set here for values at or beyond the usual limits of such assays
HLA-A*24:03 = experiment: as above
HLA-A*69:01 = experiment: as above
HLA-B*27:03 = experiment: as above
HLA-A*02:01 = experiment: as above
HLA-B*18:01 = experiment: as above
HLA-B*46:01 = experiment: as above
HLA-B*39:01 = experiment: as above
HLA-B*57:01 = experiment: as above
HLA-B*07:02 = experiment: as above; settings: source organism: Influenza A virus (A/Denver/1957(H1N1))
HLA-A*02:19 [7] = experiment: as above
HLA-A*02:12 [8] = experiment: as above
HLA-A*02:03 [9] = experiment: as above
HLA-A*68:02 [10] = experiment: as above; settings: source organism: Entamoeba dispar SAW760
HLA-A*29:02 = experiment: as above; settings: source organism: Entamoeba dispar SAW760
HLA-B*15:01 = experiment: as above
HLA-C*03:03 = experiment: IEDB peptide-MHC binding, purified MHC/direct/fluorescence; filed as Kd, often an IC50 or EC50 that approximates it; ≥ and ≤ were set here for values at or beyond the usual limits of such assays; settings: source organism: Mycobacterium avium
[11] = source organism: Yersinia pestis Antiqua
[12] = source organism: Orthohantavirus andesense
[13] = source organism: Rickettsia felis URRWXCal2
[14] = source organism: Entamoeba dispar SAW760
[15] = source organism: Giardia lamblia ATCC 50803

FASSRMSTY
Kd (HLA-C*12:03; [11]): ≤ 0.001 µM | Kd (HLA-A*01:01): 0.979 µM | Kd (HLA-A*26:01; [11]): 0.223 µM | Kd (HLA-B*35:01): 0.0002 µM

KFVAGAMNI
Kd (HLA-A*23:01): 0.0117 µM

ILIFLRNFR
Kd (HLA-A*03:01 [1]; source organism: Bacillus cereus G9241): ≥ 20 µM | Kd (HLA-A*31:01): 0.0051 µM

VFTSRIQVI
Kd (HLA-A*02:19 [2]): ≥ 20 µM | Kd (HLA-A*02:12 [3]): ≥ 20 µM | Kd (HLA-A*02:03 [4]): ≥ 20 µM | Kd (HLA-A*68:02 [5]): ≥ 20 µM | Kd (HLA-A*03:01 [6]): ≥ 20 µM | Kd (HLA-A*02:16): ≥ 20 µM | Kd (HLA-A*02:11): ≥ 20 µM | Kd (HLA-B*51:01; [12]): ≥ 20 µM | Kd (HLA-A*24:03; [12]): 0.0246 µM | Kd (HLA-A*69:01; [12]): ≥ 20 µM | Kd (HLA-B*27:03; [12]): ≥ 20 µM | Kd (HLA-A*02:01; [12]): ≥ 20 µM | Kd (HLA-B*18:01; [12]): ≥ 20 µM | Kd (HLA-A*26:01; [12]): ≥ 20 µM | Kd (HLA-B*46:01; [12]): ≥ 20 µM | Kd (HLA-B*39:01; [12]): ≥ 20 µM | Kd (HLA-B*57:01; [12]): ≥ 20 µM

IAYESSNKI
Kd (HLA-C*12:03; [13]): 0.007 µM | Kd (HLA-B*51:01; [13]): 0.196 µM

RIRFVQNAL
Kd (HLA-B*07:02): 0.0199 µM

IAMESIVIW
Kd (HLA-C*12:03; source organism: Human immunodeficiency virus 1): ≤ 0.001 µM

KDGTLFYCY
Kd (HLA-A*02:19 [7]; [14]): ≥ 20 µM | Kd (HLA-B*51:01; [14]): ≥ 20 µM | Kd (HLA-A*02:12 [8]; [14]): ≥ 20 µM | Kd (HLA-A*69:01; [14]): ≥ 20 µM | Kd (HLA-B*27:03; [14]): ≥ 20 µM | Kd (HLA-A*02:03 [9]; [14]): ≥ 20 µM | Kd (HLA-A*68:02 [10]): ≥ 20 µM | Kd (HLA-A*03:01 [1]; [14]): ≥ 20 µM | Kd (HLA-A*29:02): 0.106 µM | Kd (HLA-A*26:01; [14]): ≥ 20 µM | Kd (HLA-B*46:01; [14]): ≥ 20 µM | Kd (HLA-B*39:01; [14]): ≥ 20 µM | Kd (HLA-B*15:01; [14]): ≥ 20 µM | Kd (HLA-B*57:01; [14]): ≥ 20 µM

LAANFVVAL
Kd (HLA-C*12:03; source organism: Mycobacterium avium): 0.206 µM | Kd (HLA-C*03:03): 0.124 µM

TELPLAYER
Kd (HLA-A*02:19 [7]; [15]): ≥ 20 µM | Kd (HLA-B*51:01; [15]): ≥ 20 µM | Kd (HLA-A*02:12 [8]; [15]): ≥ 20 µM | Kd (HLA-A*24:03; [15]): ≥ 20 µM | Kd (HLA-B*27:03; [15]): ≥ 20 µM | Kd (HLA-A*02:01; [15]): ≥ 20 µM | Kd (HLA-B*18:01; [15]): 0.395 µM | Kd (HLA-A*02:03 [9]; [15]): ≥ 20 µM | Kd (HLA-A*03:01 [1]; [15]): ≥ 20 µM | Kd (HLA-A*26:01; [15]): ≥ 20 µM | Kd (HLA-B*46:01; [15]): ≥ 20 µM | Kd (HLA-B*39:01; [15]): ≥ 20 µM | Kd (HLA-B*15:01; [15]): ≥ 20 µM | Kd (HLA-B*57:01; [15]): ≥ 20 µM
